T1: circularly permuted cyno TfR apical domain (cynomolgus monkey)
T1 construct: same design as the human construct; also called cyTfR Apical Domain; cynomolgus TfR apical domain
T1 chain: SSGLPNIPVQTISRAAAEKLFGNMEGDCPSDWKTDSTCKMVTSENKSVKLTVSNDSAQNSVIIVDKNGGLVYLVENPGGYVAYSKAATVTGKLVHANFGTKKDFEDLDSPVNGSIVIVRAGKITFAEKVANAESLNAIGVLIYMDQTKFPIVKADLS

T2: circularly permuted human TfR apical domain (human)
T2 construct: TfR residues 326-379 stand N-terminal to 194-296, loop 297-325 deleted; also called huTfR Apical Domain
T2 chain: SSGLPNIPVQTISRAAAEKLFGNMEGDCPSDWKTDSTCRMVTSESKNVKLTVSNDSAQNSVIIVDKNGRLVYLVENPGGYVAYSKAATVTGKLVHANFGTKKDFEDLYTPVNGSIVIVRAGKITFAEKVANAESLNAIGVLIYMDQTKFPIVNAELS


Assays:
[1] = biological target: T1, circularly permuted cyno TfR apical …; assay: SPR, supernatant, anti-Fab capture
Description: (§1) Clones were expressed in HEK293 cells. Supernatants were captured for SPR by GE Healthcare anti-human Fab capture kit and the affinity to human and cyno TfR apical domain was measured (Table 30). The clones in Table 30 were bivalent and each TfR-binding Fc polypeptide also contained P329G and LALA mutations.

[2] = biological target: T2, circularly permuted human TfR apical …; assay: SPR, supernatant, anti-Fab capture
Description: as §1

Kd [1]	Kd [2]	Binder
13.2 µM	1240 nM	42.8.134 (Fc fusion, bivalent; P329G+LALA) APEAAGGPSVFLFPPKPKDTLMISRTPEVTCVVVDVSHEDPEVKFNWYVDGVEVHNAKTKPREEQYNSTYRVVSVLTVLHQDWLNGKEYKCKVSNKALGAPIEKTISKAKGQPREPQVYTLPPSRDELTKNQVSLTCLVKGFYPSDIAVEWFYGDQKETNYKTTPPVLDSDGSFFLYSKLTVDKSRWQQGNLFACEVMHEALHNHYTYKLLSLSPGK
11.4 µM	1010 nM	42.8.145 (Fc fusion, bivalent; P329G+LALA) APEAAGGPSVFLFPPKPKDTLMISRTPEVTCVVVDVSHEDPEVKFNWYVDGVEVHNAKTKPREEQYNSTYRVVSVLTVLHQDWLNGKEYKCKVSNKALGAPIEKTISKAKGQPREPQVYTLPPSRDELTKNQVSLTCLVKGFYPSDIAVEWFYDGQKENNYKTTPPVLDSDGSFFLYSKLTVDKSRWQQGNLFACEVMHEALHNHYTYKLLSLSPGK
9.78 µM	613 nM	42.8.176 (Fc fusion, bivalent; P329G+LALA) APEAAGGPSVFLFPPKPKDTLMISRTPEVTCVVVDVSHEDPEVKFNWYVDGVEVHNAKTKPREEQYNSTYRVVSVLTVLHQDWLNGKEYKCKVSNKALGAPIEKTISKAKGQPREPQVYTLPPSRDELTKNQVSLTCLVKGFYPSDIAVEWFYDDSKETNYKTTPPVLDSDGSFFLYSKLTVDKSRWQQGNLFACEVMHEALHNHYTYKLLSLSPGK
8.14 µM	598 nM	42.8.191 (Fc fusion, bivalent; P329G+LALA) APEAAGGPSVFLFPPKPKDTLMISRTPEVTCVVVDVSHEDPEVKFNWYVDGVEVHNAKTKPREEQYNSTYRVVSVLTVLHQDWLNGKEYKCKVSNKALGAPIEKTISKAKGQPREPQVYTLPPSRDELTKNQVSLTCLVKGFYPSDIAVEWFYEGSKLTNYKTTPPVLDSDGSFFLYSKLTVDKSRWQQGNLFACEVMHEALHNHYTYKLLSLSPGK
22.2 µM	2050 nM	42.8.186 (Fc fusion, bivalent; P329G+LALA) APEAAGGPSVFLFPPKPKDTLMISRTPEVTCVVVDVSHEDPEVKFNWYVDGVEVHNAKTKPREEQYNSTYRVVSVLTVLHQDWLNGKEYKCKVSNKALGAPIEKTISKAKGQPREPQVYTLPPSRDELTKNQVSLTCLVKGFYPSDIAVEWFYEGQKLSNYKTTPPVLDSDGSFFLYSKLTVDKSRWQQGNLFACEVMHEALHNHYTYKLLSLSPGK
11.9 µM	1150 nM	42.8.170 (Fc fusion, bivalent; P329G+LALA) APEAAGGPSVFLFPPKPKDTLMISRTPEVTCVVVDVSHEDPEVKFNWYVDGVEVHNAKTKPREEQYNSTYRVVSVLTVLHQDWLNGKEYKCKVSNKALGAPIEKTISKAKGQPREPQVYTLPPSRDELTKNQVSLTCLVKGFYPSDIAVEWFYDDQKETNYKTTPPVLDSDGSFFLYSKLTVDKSRWQQGNLFACEVMHEALHNHYTYKLLSLSPGK
7.91 µM	705 nM	42.8.180 (Fc fusion, bivalent; P329G+LALA) APEAAGGPSVFLFPPKPKDTLMISRTPEVTCVVVDVSHEDPEVKFNWYVDGVEVHNAKTKPREEQYNSTYRVVSVLTVLHQDWLNGKEYKCKVSNKALGAPIEKTISKAKGQPREPQVYTLPPSRDELTKNQVSLTCLVKGFYPSDIAVEWFYDDSKLSNYKTTPPVLDSDGSFFLYSKLTVDKSRWQQGNLFACEVMHEALHNHYTYKLLSLSPGK
4.46 µM	1030 nM	42.8.165 (Fc fusion, bivalent; P329G+LALA) APEAAGGPSVFLFPPKPKDTLMISRTPEVTCVVVDVSHEDPEVKFNWYVDGVEVHNAKTKPREEQYNSTYRVVSVLTVLHQDWLNGKEYKCKVSNKALGAPIEKTISKAKGQPREPQVYTLPPSRDELTKNQVSLTCLVKGFYPSDIAVEWFYDASKESNYKTTPPVLDSDGSFFLYSKLTVDKSRWQQGNLFACEVMHEALHNHYTYKLLSLSPGK
9.78 µM	1310 nM	42.8.190 (Fc fusion, bivalent; P329G+LALA) APEAAGGPSVFLFPPKPKDTLMISRTPEVTCVVVDVSHEDPEVKFNWYVDGVEVHNAKTKPREEQYNSTYRVVSVLTVLHQDWLNGKEYKCKVSNKALGAPIEKTISKAKGQPREPQVYTLPPSRDELTKNQVSLTCLVKGFYPSDIAVEWFYEGSKLNNYKTTPPVLDSDGSFFLYSKLTVDKSRWQQGNLFACEVMHEALHNHYTYKLLSLSPGK
8.03 µM	3510 nM	42.8.147 (Fc fusion, bivalent; P329G+LALA) APEAAGGPSVFLFPPKPKDTLMISRTPEVTCVVVDVSHEDPEVKFNWYVDGVEVHNAKTKPREEQYNSTYRVVSVLTVLHQDWLNGKEYKCKVSNKALGAPIEKTISKAKGQPREPQVYTLPPSRDELTKNQVSLTCLVKGFYPSDIAVEWFYDGQKESNYKTTPPVLDSDGSFFLYSKLTVDKSRWQQGNLFACEVMHEALHNHYTYKLLSLSPGK
11.6 µM	1050 nM	42.8.160 (Fc fusion, bivalent; P329G+LALA) APEAAGGPSVFLFPPKPKDTLMISRTPEVTCVVVDVSHEDPEVKFNWYVDGVEVHNAKTKPREEQYNSTYRVVSVLTVLHQDWLNGKEYKCKVSNKALGAPIEKTISKAKGQPREPQVYTLPPSRDELTKNQVSLTCLVKGFYPSDIAVEWFYDAQKLNNYKTTPPVLDSDGSFFLYSKLTVDKSRWQQGNLFACEVMHEALHNHYTYKLLSLSPGK
5.23 µM	664 nM	42.8.140 (Fc fusion, bivalent; P329G+LALA) APEAAGGPSVFLFPPKPKDTLMISRTPEVTCVVVDVSHEDPEVKFNWYVDGVEVHNAKTKPREEQYNSTYRVVSVLTVLHQDWLNGKEYKCKVSNKALGAPIEKTISKAKGQPREPQVYTLPPSRDELTKNQVSLTCLVKGFYPSDIAVEWFYGDSKETNYKTTPPVLDSDGSFFLYSKLTVDKSRWQQGNLFACEVMHEALHNHYTYKLLSLSPGK
13.3 µM	1600 nM	42.8.193 (Fc fusion, bivalent; P329G+LALA) APEAAGGPSVFLFPPKPKDTLMISRTPEVTCVVVDVSHEDPEVKFNWYVDGVEVHNAKTKPREEQYNSTYRVVSVLTVLHQDWLNGKEYKCKVSNKALGAPIEKTISKAKGQPREPQVYTLPPSRDELTKNQVSLTCLVKGFYPSDIAVEWFYEAQKENNYKTTPPVLDSDGSFFLYSKLTVDKSRWQQGNLFACEVMHEALHNHYTYKLLSLSPGK
10.5 µM	1140 nM	42.8.161 (Fc fusion, bivalent; P329G+LALA) APEAAGGPSVFLFPPKPKDTLMISRTPEVTCVVVDVSHEDPEVKFNWYVDGVEVHNAKTKPREEQYNSTYRVVSVLTVLHQDWLNGKEYKCKVSNKALGAPIEKTISKAKGQPREPQVYTLPPSRDELTKNQVSLTCLVKGFYPSDIAVEWFYDAQKLTNYKTTPPVLDSDGSFFLYSKLTVDKSRWQQGNLFACEVMHEALHNHYTYKLLSLSPGK
4.63 µM	665 nM	42.8.142 (Fc fusion, bivalent; P329G+LALA) APEAAGGPSVFLFPPKPKDTLMISRTPEVTCVVVDVSHEDPEVKFNWYVDGVEVHNAKTKPREEQYNSTYRVVSVLTVLHQDWLNGKEYKCKVSNKALGAPIEKTISKAKGQPREPQVYTLPPSRDELTKNQVSLTCLVKGFYPSDIAVEWFYGDSKLNNYKTTPPVLDSDGSFFLYSKLTVDKSRWQQGNLFACEVMHEALHNHYTYKLLSLSPGK
7.45 µM	832 nM	42.8.164 (Fc fusion, bivalent; P329G+LALA) APEAAGGPSVFLFPPKPKDTLMISRTPEVTCVVVDVSHEDPEVKFNWYVDGVEVHNAKTKPREEQYNSTYRVVSVLTVLHQDWLNGKEYKCKVSNKALGAPIEKTISKAKGQPREPQVYTLPPSRDELTKNQVSLTCLVKGFYPSDIAVEWFYDASKETNYKTTPPVLDSDGSFFLYSKLTVDKSRWQQGNLFACEVMHEALHNHYTYKLLSLSPGK
